In test [1] the target is T1, recombinant human PVR (human, UniProt P15151 21-343).
T1 construct: The tagged PVR of the BLI assay and the biotinylated PVR used as detector in MSD are treated as one molecule; also called rhPVR; CD155
T1 sequence (looked up): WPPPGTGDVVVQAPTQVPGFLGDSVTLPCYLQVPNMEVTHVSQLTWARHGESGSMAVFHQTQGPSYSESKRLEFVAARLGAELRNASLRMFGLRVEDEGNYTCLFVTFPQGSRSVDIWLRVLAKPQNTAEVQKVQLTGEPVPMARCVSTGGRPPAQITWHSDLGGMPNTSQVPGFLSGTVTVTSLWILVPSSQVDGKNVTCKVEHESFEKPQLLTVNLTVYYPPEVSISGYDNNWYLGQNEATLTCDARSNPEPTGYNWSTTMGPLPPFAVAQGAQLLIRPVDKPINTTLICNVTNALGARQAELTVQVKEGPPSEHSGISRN
The experiment in a line: BLI (Octet-Red96), tagged rhPVR immobilised on biosensor. As for the experimental part: (§1) Bio-Layer interferometry-based affinity testing was used to determine the on-rates (Ka), off-rates (Kd) and binding affinities (KD) of the TIGIT-Fc-LIGHT chimeric protein to intended binding targets, using histidine- or biotin-tagged versions of the human recombinant proteins (PVR, HVEM, LTβR, PVRL2, PVRL3, and Nectin-4; purchased from Acro Biosystems or Sino Biological). Commercially available or internally produced single-sided fusion protein controls (TIGIT-Fc and Fc-LIGHT) were also tested in parallel. Targets were immobilized at a concentration of 3 μg/mL in Kinetics buffer (PBS/0.1% Tween-20/1% BSA; pH7.0) to anti-pentaHis or streptavidin coated biosensors. Direct binding of fusion proteins to recombinant target proteins was performed on an Octet-Red96 BLI instrument, using association and dissociation times of 90 and 120 seconds, respectively.
Protein-protein interactions (PPI) between the fusion proteins and their cognate binding partners were characterized using both recombinant protein and cell-based methods. First, bio-layer interferometry-based affinity testing was used to assess the kinetics of receptor/ligand binding.
(In general: BLI is a label-free optical method that tracks binding on a fibre tip over time.)

The target in test [2] is T1, recombinant human PVR. Description: MSD sandwich 'Dual - Potency #1': capture LTβR-Fc, TIGIT-Fc-LIGHT titrated, detection PVR-Biotin (same curve as the capture row). As for the experimental part: (§2) For the TIGIT-Fc-LIGHT chimeric protein; MSD Multi-Array plates (MSD) were pre-coated overnight with recombinant human LTβR-Fc or HVEM-Fc (Acro Biosystems) at 4° C. The plates were blocked with Diluent 100 (MSD) for at least one hour at room temperature on a shaker. After washing, analysis samples were added and then serially diluted 3-fold and loaded in duplicate wells to generate 8-10 test concentrations. The bound the TIGIT-Fc-LIGHT chimeric protein was detected with recombinant biotinylated human PVR (Acro Biosystems). Streptavidin conjugated to ruthenium (MSD), was added to bind the biotin labeled detector. MSD Gold Reading buffer (MSD) was added to the plate, and upon application of an electrical charge, an electrochemiluminescent signal was produced and detected with the MSD MESO QuickPlex SQ 120MM, Model 1300, to generate relative light units (RLU). Analogous assays were performed using mTIGIT-Fc-LIGHT and murine recombinant PVR, HVEM, and […] (Acro Biosystems).
(§3) The binding of the TIGIT-Fc-LIGHT chimeric protein to its receptors was characterized by Meso Scale Discovery (MSD) ELISA assays. […] Binding of the chimeric protein to LTβR-Fc was detected using an PVR-Biotin and using an electrochemiluminescence (ECL) readout. […] Binding of the chimeric protein to HVEM-Fc was detected using an PVR-Biotin and using an electrochemiluminescence (ECL) readout. […]

Test [3] addresses T2, anti-human LIGHT-biotin antibody (MSD detection).
T2 construct: also called anti-LIGHT antibody
Description: MSD sandwich 'Dual - Antibody': capture anti-TIGIT, TIGIT-Fc-LIGHT titrated, detection anti-LIGHT (same curve as the capture row).

The target of test [4] is T3, cell surface human HVEM (CHO-K1/hHVEM cells; Jurkat effector cells; human PBMC) (human, UniProt Q92956 39-283).
T3 construct: whole, on cells; also called cell surface HVEM
T3 sequence (looked up): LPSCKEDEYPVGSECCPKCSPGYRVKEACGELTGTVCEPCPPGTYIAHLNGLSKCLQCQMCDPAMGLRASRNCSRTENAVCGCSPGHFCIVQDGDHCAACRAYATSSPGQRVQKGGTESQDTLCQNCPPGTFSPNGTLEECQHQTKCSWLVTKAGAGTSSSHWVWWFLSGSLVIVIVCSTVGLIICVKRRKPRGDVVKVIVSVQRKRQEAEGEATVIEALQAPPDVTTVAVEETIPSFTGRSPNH
Description: flow cytometry, CHO-K1 cells stably expressing human HVEM; cell surface HVEM. (In general: A flow cytometer gives signals particle by particle.)

The target of test [5] is T4, recombinant human LTβR-Fc (human, UniProt P36941 31-227, limits assumed).
T4 construct: not shown: Fc of the bought fusion (Acro Biosystems); not described
Description: MSD sandwich 'Dual - Potency #1': capture LTβR-Fc, TIGIT-Fc-LIGHT titrated, detection PVR-Biotin. On the procedure:
as §2, §3

For test [6], the target named is T1, recombinant human PVR. The experiment in a line: MSD sandwich 'Dual - Potency #2': capture HVEM-Fc, TIGIT-Fc-LIGHT titrated, detection PVR-Biotin (same curve as the capture row). As for the experimental part:
as §2, §3

Test [7] addresses T5, recombinant human CD113 (PVRL3) (human, UniProt Q9NQS3 58-404).
T5 construct: also called rhCD113 (PVRL3); Nectin-3
The experiment in a line: BLI (Octet-Red96), tagged rhCD113 (PVRL3) immobilised on biosensor. As for the experimental part:
as §1

In test [8] the target is T6, anti-human TIGIT antibody (MSD capture).
T6 construct: also called anti-TIGIT antibody
The experiment in a line: MSD sandwich 'Dual - Antibody': capture anti-TIGIT, TIGIT-Fc-LIGHT titrated, detection anti-LIGHT.

Test [9] deals with T7, cell surface human LTβR (A375 cells; U2OS/NIK/NFκB reporter cells) (human, UniProt P36941 31-435).
T7 construct: whole, on cells; also called cell surface LTβR
The experiment in a line: flow cytometry, A375 cells that express human LTβR; cell surface LTβR.

T5 sequence (Q9NQS3 58-404 limits assumed): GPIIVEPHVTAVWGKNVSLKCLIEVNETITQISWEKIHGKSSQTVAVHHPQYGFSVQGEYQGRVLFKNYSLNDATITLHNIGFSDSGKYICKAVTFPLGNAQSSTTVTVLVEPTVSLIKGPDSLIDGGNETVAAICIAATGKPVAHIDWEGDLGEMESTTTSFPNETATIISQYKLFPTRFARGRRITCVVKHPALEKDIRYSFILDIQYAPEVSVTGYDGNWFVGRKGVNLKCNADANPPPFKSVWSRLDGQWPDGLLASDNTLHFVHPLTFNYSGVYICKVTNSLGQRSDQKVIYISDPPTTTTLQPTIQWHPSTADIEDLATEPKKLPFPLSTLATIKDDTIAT
T7 sequence (P36941 31-435): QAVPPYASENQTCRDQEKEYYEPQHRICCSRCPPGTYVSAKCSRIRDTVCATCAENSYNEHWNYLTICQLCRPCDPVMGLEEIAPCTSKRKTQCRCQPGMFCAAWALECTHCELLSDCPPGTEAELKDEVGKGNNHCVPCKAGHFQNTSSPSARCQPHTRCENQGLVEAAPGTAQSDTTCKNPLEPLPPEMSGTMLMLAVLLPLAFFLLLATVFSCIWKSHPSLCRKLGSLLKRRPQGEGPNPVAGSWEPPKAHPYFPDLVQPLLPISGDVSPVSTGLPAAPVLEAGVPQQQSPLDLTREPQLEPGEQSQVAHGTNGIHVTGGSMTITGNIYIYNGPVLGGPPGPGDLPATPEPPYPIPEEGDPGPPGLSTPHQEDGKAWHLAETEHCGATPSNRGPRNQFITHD
T4 sequence (P36941 31-227 limits assumed): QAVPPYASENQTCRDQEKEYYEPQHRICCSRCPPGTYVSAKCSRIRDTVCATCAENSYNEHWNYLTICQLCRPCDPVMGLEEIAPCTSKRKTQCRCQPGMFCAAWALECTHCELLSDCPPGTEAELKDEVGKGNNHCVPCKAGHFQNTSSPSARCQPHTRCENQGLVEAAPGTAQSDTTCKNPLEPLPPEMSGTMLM

B1: human TIGIT-Fc-LIGHT chimeric protein (Fc fusion)
chain: MMTGTIETTGNISAEKGGSIILQCHLSSTTAQVTQVNWEQQDQLLAICNADLGWHISPSFKDRVAPGPGLGLTLQSLTVNDTGEYFCIYHTYPDGTYTGRIFLEVLESSVAEHGARFQIPSKYGPPCPPCPAPEFLGGPSVFLFPPKPKDQLMISRTPEVTCVVVDVSQEDPEVQFNWYVDGVEVHNAKTKPREEQFNSTYRVVSVLTVLHQDWLSGKEYKCKVSSKGLPSSIEKTISNATGQPREPQVYTLPPSQEEMTKNQVSLTCLVKGFYPSDIAVEWESNGQPENNYKTTPPVLDSDGSFFLYSRLTVDKSRWQEGNVFSCSVLHEALHNHYTQKSLSLSLGKIEGRMDLQLHWRLGEMVTRLPDGPAGSWEQLIQERRSHEVNPAAHLTGANSSLTGSGGPLLWETQLGLAFLRGLSYHDGALVVTKAGYYYIYSKVQLGGVGCPLGLASTITHGLYKRTPRYPEELELLVSQQSPCGRATSSSRVWWDSSFLGGVVHLEAGEKVVVRVLDERLVRLRDGTRSYFGAFMV
notes: Said to exist as a hexamer (dimer of trimers); Glycosylated; also called hTIGIT-Fc-LIGHT; TIGIT-Fc(IgG4)-LIGHT
Consider B1, for which, in the test with recombinant human PVR [1], the Kd (as a rule, a measure of binding affinity in units of concentration) was determined as 4.07 nM. Also, the figures for the koff (with recombinant human PVR [1]; in test [7]) were 0.000103 s⁻¹ and 0.00126 s⁻¹, respectively. Also, the kon (in general, the rate constant with which the complex forms) with recombinant human PVR [1] came out at 25300 M⁻¹ s⁻¹; in test [7], 130000 M⁻¹ s⁻¹. For the same molecule, the EC50 (as a rule, the midpoint of the concentration-response curve) in the test with recombinant human PVR [2] is 28.3 nM; in test [3], 1.15 nM; in test [4], 65.8 nM; in test [5] it was 28.3 nM; in the test with recombinant human PVR [6], 86 nM; in test [8], 1.15 nM. This molecule showed an EC50 in [9] of 87.1 nM.

The values above are taken from US20240016892A1 (SHATTUCK LABS, published 2024).
